Literature values as cited in publication PMC6787260.
Read-outs that look alike come from different tables or passages of the source.

What was measured:
PDK1 (Homo sapiens) [1] = target: PDK1 (Homo sapiens) (UniProt O15530); experiment: time resolved-FRET
PDK1 (Homo sapiens) [2] = target: PDK1 (Homo sapiens) (UniProt O15530); experiment: time resolved-FRET; remark: listed apart in the source

With PDK1 (from UniProt O15530) as the substance, how does the Kd (PDK1 (Homo sapiens) [1]) read?
The Kd was 49 µM.

What about the Kd (PDK1 (Homo sapiens) [2]) of the same substance?
Its Kd is 11 µM.
